{
  "source": "patent US7265267",
  "about": "(CROPDESIGN N V, dated 2007)",
  "binders": {"B1": {"name": "GAL4 activation domain-FL39 fusion (pGADFL39) (other, not shown: large carriers)", "chain": "MAAVRRRERDVVEENGVTTTTVKRRKMEEEVDLVESRIILSPCVQATNRGGIVARNSAGASETSVVIVRRRDSPPVEEQCQIEEEDSSVSCCSTSEEKSKRRIEFVDLEENNGDDRETETSWIYDDLNKSEESMNMDSSSVAVEDVESRRRLRKSLHETVKEAELEDFFQVAEKDLRNKLLECSMKYNFDFEKDEPLGGGRYEWVKLNP", "notes": "also called ICK2; CKI2"}, "B2": {"name": "GAL4 activation domain alone (pGAD424) (other, UniProt P04386 768-881, looked up)", "chain": "ANFNQSGNIADSSLSFTFTNSSNGPNLITTQTNSQALSQPIASSNVHDNFMNNEITASKIDDGNNSKPLSPGWTDQTAYNAFGITTGMFNTTTMDDVYNYLFDDEDTPPNPKKE", "notes": "Negative control prey in the two-hybrid retransformation"}, "B3": {"name": "Purified recombinant FL66 protein (E. coli, FL66pET21d), starting at methionine 11 (other)", "chain": "MEVSKATAPSPGVRTRAAKTLALKRLNSSAADSALPNDSSCYLQLRSRRLEKPSSLIEPKQPPRVHRSGIKESGSRSRVDSVNSVPVAQSSNEDECFDNFVSVQVSCGENSLGFESRHSTRESTPCNFVEDMEIMVTPGSSTRSMCRATKEYTREQDNVIPTTSEMEEFFAYAEQQQQRLFMEKYNFDIVNDIPLSGRYEWVQVKP", "notes": "also called FL66-Sepharose"}, "B4": {"name": "GAL4 activation domain-LDV39 fusion (pGADLDV39) (other, not shown: large carriers)", "chain": "RRDSPPVEEQCQIEEEDSSVSCCSTSEEKSKRRIEFVDLEENNGDDRETETSWIYDDLNKSEESMNMDSSSVAVEDVESRRRLRKSLHETVKEAELEDFFQVAEKDLRNKLLECSMKYNFDFEKDEPLGGGRYEWVKLNP", "notes": "FL39 = ICK2 = CKI2"}, "B5": {"name": "GAL4 activation domain-LDV66 fusion (pGADLDV66) (other, not shown: large carriers)", "chain": "VNSVPVAQSSNEDECFDNFVSVQVSCGENSLGFESRHSTRESTPCNFVEDMEIMVTPGSSTRSMCRATKEYTREQDNVIPTTSEMEEFFAYAEQQQQRLFMEKYNFDIVNDIPLSGRYEWVQVKP", "notes": "FL66 = ICK3"}, "B6": {"name": "GAL4 activation domain-LDV159 fusion (pGADLDV159) (other, Arabidopsis thaliana, UniProt Q67Y93 1-191, looked up, not shown: large carriers)", "chain": "MVRKYRKAKGIVEAGVSSTYMQLRSRRIVYVRSEKSSSVSVVGDNGVSSSCSGSNEYKKKELIHLEEEDKDGDTETSTYRRGTKRKLFENLREEEKEELSKSMENYSSEFESAVKESLDCCCSGRKTMEETVTAEEEEKAKLMTEMPTESEIEDFFVEAEKQLKEKFKKKYNFDFEKEKPLEGRYEWVKLE", "notes": "also called ICK1"}, "B7": {"name": "GAL4 activation domain-FL66 fusion (pGADFL66), FL66 starting at methionine 11 (other, not shown: large carriers)", "chain": "MEVSKATAPSPGVRTRAAKTLALKRLNSSAADSALPNDSSCYLQLRSRRLEKPSSLIEPKQPPRVHRSGIKESGSRSRVDSVNSVPVAQSSNEDECFDNFVSVQVSCGENSLGFESRHSTRESTPCNFVEDMEIMVTPGSSTRSMCRATKEYTREQDNVIPTTSEMEEFFAYAEQQQQRLFMEKYNFDIVNDIPLSGRYEWVQVKP", "notes": "the FL66 clone may not be full length; also called ICK3"}},
  "key": {"[1]": {"biological_target": "T1, GAL4 DNA-binding domain-CDC2aAt fusion (pGBTCDC2A bait) (Arabidopsis thaliana, UniProt P04386 1-147; P24100 1-294)", "T1 construct": "Yeast two-hybrid bait; whole CDC2aAt coding region amplified from cDNA and cloned in the EcoRI site of pGBT9", "test": "yeast two-hybrid, growth without histidine", "protocol": "(§1) The pGBTCDC2B vector encoding a fusion protein between the C-terminus of the GAL4 DNA-binding domain and CDC2bAt was constructed by cloning the full length coding region of CDC2bAt into the pGBT9 vector. pGBTCDC2B was transformed with pGADLDV66/pGADLDV39/pGADLDV159 in the HF7c yeast and cotransformants were plated on medium with or without histidine. As control, pGBTCDC2A was transformed with pGADLDV66/pGADLDV39/pGADLDV159. In contrast to the transformants containing the pGBTCDC2A vector were cotransformants containing the pGBTCDC2B vector unable to grow in the absence of histidine."}, "[2]": {"biological_target": "GAL4 DNA-binding domain-CDC2bAt fusion (pGBTCDC2B) (Arabidopsis thaliana, UniProt P04386 1-147; P25859 1-309)", "test": "yeast two-hybrid, growth without histidine", "protocol": "as §1"}, "[3]": {"biological_target": "T1, GAL4 DNA-binding domain-CDC2aAt fusion …", "test": "yeast two-hybrid control, growth without histidine", "text": "(§2) The LDV159 clone was identical to ICK1 (GenBank accession number U94772 as published by Wang in Nature 386 (1997), 451–452). The two other clones were novel and encoded proteins only distantly related to ICK1 (Table 1). The LDV39 gene was 622 bp long, consisting of 423 bp coding region and 199 bp 3' UTR (excluding the poly-A tail). The LDV66 gene was 611 bp long, consisting of 379 bp coding region and 232 bp 3' UTR (excluding the poly-A tail). The specificity of the interaction between LDV39, LDV66, and LDV159 was verified by the retransformation of yeast with pGBTCDC2A and pGADLDV39/pGADLDV66/pGADLDV159. As controls, pGBTCDC2A was cotransformed with a vector containing only the GAL4 activation domain (pGAD424); and the pGADLDV39/pGADLDV66/pGADLDV159 vectors were cotransformed with a plasmid containing only the GAL4 DNA binding domain (pGBT9). Transformants were plated on medium with or without histidine. Only transformants containing both pGBTCDC2A and pGADLDV39, pGADLDV66, ot pGADLDV159 were able to grow in the absence of histidine."}, "[4]": {"biological_target": "T2, CDC2bAt protein in protein extract of A. thaliana Col-O cell suspension culture (Arabidopsis thaliana, UniProt P25859 1-309)", "T2 construct": "Endogenous protein in a crude extract", "T2 sequence (looked up)": "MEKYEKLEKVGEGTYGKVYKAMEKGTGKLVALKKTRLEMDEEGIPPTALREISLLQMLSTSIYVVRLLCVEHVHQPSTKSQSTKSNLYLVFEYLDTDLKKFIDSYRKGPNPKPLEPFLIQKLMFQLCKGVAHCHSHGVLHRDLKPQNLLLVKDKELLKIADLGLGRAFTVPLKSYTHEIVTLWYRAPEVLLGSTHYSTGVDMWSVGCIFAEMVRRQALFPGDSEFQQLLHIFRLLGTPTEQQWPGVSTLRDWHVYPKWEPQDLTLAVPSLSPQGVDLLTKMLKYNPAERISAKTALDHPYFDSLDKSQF", "test": "pull-down from cell extract on FL66-Sepharose, Western blot", "protocol": "The *Arabidopsis thaliana* CKI FL66 Associates Exclusively with CDC2aAt In Vitro Purified recombinant FL66 protein (prepared as described as in previous Example 6 was coupled to CNBr-activated Sepharose 4B (Pharmacia) at a concentration of 5 mg/ml of gel according to the manufacturer's instructions. Protein extracts were prepared from a 2-day-old cell suspension culture of *A. thaliana* Col-O in homogenisation buffer (HB) containing 50 mM Tris-HCl (pH 7.2), 60 mM β-glycerophosphate, 15 mM nitrophenyl phosphate, 15 mM EGTA, 15 mM MgCl_2, 2 mM dithiothreitol, 0.1 mM vanadate, 50 mM NaF, 20 µg/ml leupeptin, 20 µg/ml aprotinin, 20 µg/ml soybean trypsin inhibitor (SBTI), 100 µM benzamidine, 1 mM phenylmethylsulfonylfluoride, and 0.1% Triton X-100. Two-hundred µg protein extract in a total volume of 100 µl HB was loaded on 50 µl 50% (v/v) FL66-Sepharose or control Sepharose beads, and incubated on a rotating wheel for 2 h at 4° C. The unbound proteins were collected for later analysis. The beads-bound fractions were washed 3 times with HB. Beads were resuspended in 30 µl SDS-loading buffer and boiled. The supernatants (beads bound fractions) and 10 µl of the unbound fractions were separated on a 12.5% SDS-PAGE gel and electroblotted on nitrocellulose membrane (Hybond-C^+; Amersham). […]"}, "[5]": {"biological_target": "T3, GAL4 DNA binding domain alone (pGBT9) (UniProt P04386 1-147)", "T3 construct": "Negative control bait in the two-hybrid retransformation", "test": "yeast two-hybrid control, growth without histidine", "text": "as §2"}},
  "data": [
    {"binder": "B1", "values": [
      {"measurement": "binding result", "setting": "[1]", "value": "binds"},
      {"measurement": "binding result", "setting": "[2]", "value": "no binding"}
    ]},
    {"binder": "B2", "values": [
      {"measurement": "binding result", "setting": "[3]", "value": "no binding"}
    ]},
    {"binder": "B3", "values": [
      {"measurement": "binding result", "setting": "[4]", "value": "no binding"}
    ]},
    {"binder": "B4", "values": [
      {"measurement": "binding result", "setting": "[5]", "value": "no binding"},
      {"measurement": "binding result", "setting": "[2]", "value": "no binding"}
    ]},
    {"binder": "B5", "values": [
      {"measurement": "binding result", "setting": "[5]", "value": "no binding"},
      {"measurement": "binding result", "setting": "[2]", "value": "no binding"}
    ]},
    {"binder": "B6", "values": [
      {"measurement": "binding result", "setting": "[2]", "value": "no binding"}
    ]},
    {"binder": "B7", "values": [
      {"measurement": "binding result", "setting": "[2]", "value": "no binding"}
    ]}
  ]
}
